Here are results for 1 molecule from doi:10.1101/2025.03.21.644525 (bioRxiv, 2025).

The target in this test is T1, ARM domain of APC (residues 338-1010), untagged (Mus musculus, UniProt Q61315 338-1010).
T1 sequence (looked up): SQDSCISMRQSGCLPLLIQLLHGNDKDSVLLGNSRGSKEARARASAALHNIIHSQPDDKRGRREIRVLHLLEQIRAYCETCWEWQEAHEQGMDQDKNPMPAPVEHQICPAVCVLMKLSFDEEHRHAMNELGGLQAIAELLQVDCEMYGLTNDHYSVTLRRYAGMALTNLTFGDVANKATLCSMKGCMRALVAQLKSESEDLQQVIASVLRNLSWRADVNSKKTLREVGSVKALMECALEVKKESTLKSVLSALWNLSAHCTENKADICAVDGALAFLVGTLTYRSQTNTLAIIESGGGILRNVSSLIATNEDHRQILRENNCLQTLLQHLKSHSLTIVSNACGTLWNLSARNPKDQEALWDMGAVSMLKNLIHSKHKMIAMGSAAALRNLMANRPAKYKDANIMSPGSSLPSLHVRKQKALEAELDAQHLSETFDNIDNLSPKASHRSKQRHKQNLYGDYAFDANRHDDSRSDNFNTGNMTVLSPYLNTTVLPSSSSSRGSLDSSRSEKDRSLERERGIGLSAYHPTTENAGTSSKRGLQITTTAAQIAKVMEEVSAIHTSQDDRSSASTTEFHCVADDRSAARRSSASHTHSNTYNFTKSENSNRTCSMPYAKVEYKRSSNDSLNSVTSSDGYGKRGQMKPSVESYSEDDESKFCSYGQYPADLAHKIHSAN
In words: cryo-EM structure.

B1: KIF3A C-terminal region (residues 481-701, ACT), N-terminal 6His tag (domain or fragment, Mus musculus, UniProt P28741 481-701, looked up)
chain: VIVGGVDLLAKAEEQEKLLEESNMELEERRRRAEQLRKELEEKEQERLDIEEKYTSLQEEAQGKTKKLKKVWTMLMAAKSEMADLQQEHQREIEGLLENIRQLSRELRLQMLIIDNFIPQDYQEMIENYVHWNEDIGEWQLKCVAYTGNNMRKQTPVPDKKERDPFEVDLSHVYLAYTEESLRQSLMKLERPRTSKGKARPKMGRRKRSAKPETVIDSLLQ
With B1, the binding result is given as “binds”.
